Reference: the supplement of paper PMC9170038

Test system: MS2 coat protein
Assay: apparent KD of MS2 coat protein; designed switch direction (-1 OFF switch, 1 ON switch): -1; higher = weaker reporter binding
How it was run: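 Three titration conditions were used: no input, 200 uM small-molecule ligand, and an oligonucleotide input. In each, SNAP-549-labelled MS2 coat protein was raised from 0.7 or 1.5 nM, doubling, to 3 µM over designed RNA switches transcribed on Illumina chips by stalled E. coli RNA polymerase. Curve fits of normalised cluster fluorescence gave values whose per-design median over clusters is the apparent KD.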

[1] = Eterna round: R95, input ligand: microRNA oligo, concentration not stated
[2] = Eterna round: R95, input ligand: FMN 200 uM
[3] = Eterna round: R95, input ligand: none
[4] = input ligand: microRNA oligo, concentration not stated

Row | Sequence | apparent KD of MS2 coat protein (input ligand: FMN 200 uM) | apparent KD of MS2 coat protein (input ligand: none) | apparent KD of MS2 coat protein [1] | apparent KD of MS2 coat protein [2] | apparent KD of MS2 coat protein [3] | apparent KD of MS2 coat protein [4]
1 | AUCCUCUAGAAGGAUAUGCAGGUUGAAUAAACCGCAGAAGGUUUUACAUGAGGAUCACCCAUGUGUAUAACACA [Eternabot (L2) Solution 100] (Eterna round: R97, puzzle: Exclusion 6) | 230 nM | 165 nM | – | – | – | –
2 | UCAAAGCUAGGAUAUACAUGAGGAUCACCCAUGUUAUCACCCAUCGGGUCUUGCUUUUGUAGAAGGAGCAAUAA [Xeinso] (puzzle: Exclusion 3) | – | – | 25.6 nM | – | – | –
3 | GAUUAUGCGAGCUUUAGGGACAUGAGGAUCACCCAUGUUCGUCUUAUUGAUCUAGGUACGCUAACAUACCUAAAUCU [Mod of one of jandersonlee's solutions 3] (puzzle: Sensor v3, turn-off variant 1) | – | – | 36.3 nM | 23 nM | 23 nM | –
4 | CCUAUGUGAGGAUAUCACUGGUCUUCUUUUAUUUUUUACAGUGAGAAGGCACAUGAGGAUCACCCAUGUCGGUG [Ex4 - 3 - 49] (Eterna round: R96, puzzle: Exclusion 4) | 98.4 nM | 192 nM | – | – | – | 115 nM
5 | GUGUAGAUAGGAUAUGCUUAGAGCUUACGAAAGUAGGCUCUACAUGAGGAUCACCCAUGUAGAAGGGUCUACAC [Dot plot directed A v16] (puzzle: Exclusion 2) | – | – | 24.9 nM | – | – | –
6 | GCAGCAUAGUUUACUAACUGUUACAUGAGGAUCACCCAUGUCUAGGAUAUGGUCUGGAUUACAGGCCAGAAGGAGACAAGCUGC [Eli exng3 - 034] (Eterna round: R96, puzzle: Exclusion NG 3) | 14.1 nM | 16.6 nM | – | – | – | 12.1 nM
7 | AAAUAGCAAGUGUGAUCCUACAUGAGGAUCACCCAUGUGUUCGUCUUAUUUGAAGACAACACAAAAGUGUUGUCUUA [Omei Mir OFFv1 B2] (Eterna round: R97, puzzle: Sensor, turn-off variant 1) | 32.9 nM | 24.6 nM | – | – | – | –
8 | AGAGAGAUAGGAUAUACGUGGUUUUCUCAGGUCUAAGUUCAACAUGAGGAUCACCCAUGUAGAAGGAUCAAAAG [EX2 C.14] (Eterna round: R97, puzzle: Exclusion 2) | 690 nM | 156 nM | – | – | – | –
9 | CAUGUAAGUCGUUGAUCCAACAUGAGGAUCACCCAUGUCACUUUAGCUUUUUGCUCGUCUUAUCCUCCUUUGUUCAC [JR_STOV1_v2_Sub0100] (Eterna round: R97, puzzle: Sensor, turn-off variant 1) | 482 nM | 1060 nM | – | – | – | –
10 | ACAAGCUUAUUGCUCGGGUACAUGAGGAUCACCCAUGUUUGUGAUUAUAGAGAUUGUGUUGACGUGCGCUGCAGGUU [JR_SV3TOV1_Sub078] (puzzle: Sensor v3, turn-off variant 1) | – | – | 37.9 nM | 61.1 nM | 77 nM | –
11 | AGCGAGGCAGGAUAUACAUGAGGAUCACCCAUGUGCUUGCAUGGCGUGGGACGUCGAGGUAGAAGGGCCAUGCC [EX3 #70] (Eterna round: R97, puzzle: Exclusion 3) | 87.3 nM | 52.1 nM | – | – | – | –
12 | GAAAUGGUAGGAUAUACGAAAAAAAAGGGUAGAAAAAAAACACAUGAGGAUCACCCAUGUAGAAGGACCAAAAG [salish99_ex2_r3_088] (puzzle: Exclusion 2) | – | – | 31.9 nM | 71.4 nM | 28.4 nM | –
13 | GAGGGACAUGAGGAUCACCCAUGUGAGGAUAUGUAAGAGAGAAGAGAGAGGAUAAGAAACAGAAGGCGCGGGAG [JR_Exclu1_Sub090] (puzzle: Exclusion 1) | – | – | 44 nM | 33.9 nM | 77.1 nM | –
14 | GAUUAUGCGAGCUUUAGGGACAUGAGGAUCACCCAUGUUCGUCUUAUUGAUCUAGGUGCACUGACAUACCUAAAUCU [JMF 89] (puzzle: Sensor v3, turn-off variant 1) | – | – | 37.9 nM | 28.5 nM | 29.8 nM | –
15 | ACAUGAGGAUCACCCAUGUACAGGGUUUAGUUUCAUCGUUUGAAGGAUAUACUCAGUUAGUUGUUGUAGAAGGUCACAUUUUGG [JR_ExcNG3_Sub004] (Eterna round: R96, puzzle: Exclusion NG 3) | 138 nM | 126 nM | – | – | – | 108 nM
16 | AUAAUGUGAGGAUAUCAGUCGACUAGCUUCGGCUAGUCGACUGAGAAGGUACAUGAGGAUCACCCAUGUAGAUC [E4/20-A1] (Eterna round: R97, puzzle: Exclusion 4) | 59.9 nM | 40.9 nM | – | – | – | –
17 | GCAGCAACUCUAAUCAAAACCACAUGAGGAUCACCCAUGUCUCAGGAUAUGGUCUGGAUUACAGGCCAGAAGGGAGAAAGCUGC [Eli exng3 - 050] (Eterna round: R96, puzzle: Exclusion NG 3) | 13.3 nM | 19.4 nM | – | – | – | 10.6 nM
18 | UUUUAACAUGAGGAUCACCCAUGUGAGGAUAUCGAAAUUUAUAUUAAUAUUAAUAUAACGAGAAGGCACAUUUU [JMF 23] (puzzle: Exclusion 1) | – | – | 47.2 nM | – | – | –
19 | UUUUUGUCAGGAUAUGCAUGUUUUUUUUUUUUUUUUUUCAUGCAGAAGGGACAUGAGGAUCACCCAUGUAGUUU [Ex4 - 3 - 10] (Eterna round: R96, puzzle: Exclusion 4) | 53.7 nM | 63.2 nM | – | – | – | 61.7 nM
20 | CGUCCACUUGAGGAUCACCCAAGUUAGGAUAUCUCCCGGCUCGCAAAUGCAGUCGGUCAGAGAAGGAACCAGGG [Qualaon] (Eterna round: R97, puzzle: Exclusion 1) | 59.6 nM | 26.7 nM | – | – | – | –
21 | CAUGAUUGACGAGGAUAUUGUACUACAUCACGACGAGAAGGCGUCUGUCACAUGAGGAUCACCCAUGUGAGACUGGUGAAUGAG [Ex NG1 #80] (Eterna round: R96, puzzle: Exclusion NG 1) | 31.6 nM | 26.2 nM | – | – | – | 16.7 nM
22 | UAAUAUAGUGUGAGGAUAUGCUGGUCGAUAGAUCAGCAGAAGGCACAUGAGGAUCACCCAUGUAAUAUAUUAAA [Mat - Exclusion 4 - JL Mod - D36] (puzzle: Brourd's mod of Exclusion 4) | – | – | 30.7 nM | 64.6 nM | 42.9 nM | –
23 | UGUAACCUAGGAUAUACAUGAGGAUCACCCAUGUAAUGUAGUAUAGUGUGUGUGAGGUGUAGAAGGUGGGAUGU (Eterna round: R97, puzzle: Exclusion 3) | 60.4 nM | 60.2 nM | – | – | – | –
24 | AGUAACAGAGGAUAUACUGUUUUAUGUGUUUGUUAUUUUGAACAUGAGGAUCACCCAUGUAGAAGGCUGAAUAA [JMF 92] (puzzle: Exclusion 2) | – | – | 20 nM | – | – | –
25 | CACCGUUACUGAGGAUAUGGCACAUGAGGAUCACCCAUGUAAUAAAUGAGAAUUUCGGAUGUAUUCCAGAAGGCAGUAACCGGC [Ostricism 69 - Jieux - Exclusion NG 2] (Eterna round: R96, puzzle: Exclusion NG 2) | 30 nM | 27.1 nM | – | – | – | 23.3 nM
